{
  "source": "patent US6881557",
  "about": "(ARROWSMITH TECHNOLOGY LICENSING, dated 2005)",
  "binders": {"B1": {"name": "humanized D1.3 Fab (Fab, V domains shown)", "VH": "QVQLQESGPGLVKPSETLSLTCTVSGGSVSGYGVNWIRQPPGKGLEWIGMIWGDGNTDYNSSLKSRVTISVDTSKNQFSLKLSSVTAADTAVYYCARERDYRLDYWGQGTLVTVSS", "VL": "AIRMTQSPFSLSASVGDRVTITCRASGNIHNYLAWYQQKPAKAPKLFIYYTTTLADGVPSRFSGSGSGTDYTLTISSLQPEDFATYYCQHFWSTPRTFGGGTKVEIKR", "notes": "also called SHuD1.3; humanized D1.3 antibody"}, "B2": {"name": "humanized anti-human CD28 (Hu.9.3) Fab fragment (Fab, V domains shown)", "VH": "EVQLVQSGGGLVQPGGSLRLSCAGSGFTFSDYGVHWVRQAPGKGLEWVSAIWAGGGTNYASSVMGRFTISRDNAKNSLYLQMNSLRAEDMAVYYCARDKGYSYYYSMDYWGQGTLVTVSS", "VL": "DIVMTQSPDSLAVSLGERATINCRASESVEYYVTSLMAWYQQKPGQPPKLLIYAASNVESGVPDRFSGSGSGTNFSLTISSLQAEDVAVYYCQQSRKVPYTFGQGTKLEIKR", "notes": "also called humanized 9.3"}, "B3": {"name": "hybrid Fab fragment comprised of human constant domains, mouse 9.3 heavy chain variable domain, and humanized light chain variable domain (Fab, V domains shown)", "VH": "EVKLQQSGPGLVTPSQSLSITCTVSGFSLSDYGVHWVRQSPGQGLEWLGVIWAGGGTNYNSALMSRKSISKDNSKSQVFLKMNSLQADDTAVYYCARDKGYSYYYSMDYWGQGTSVTVSS", "VL": "B2 VL"}, "B4": {"name": "Fab fragment comprised of mouse NGAD65 variable and constant domains (Fab, V domains shown)", "VH": "QVQLQQPGAELVKPGASVKMSCKASGYRFSSYNMHWVKQTPGQGLEWIGAIYPRSGDTSYNQKFKGKATLTADKSSSTAYMQLGSLTSEDSAVYYCVRSYDYDAPFAFWGQGTLVTVSA", "VL": "VLTQTPLSLPVSLGDQASISCRSSQSLEHNNGNTYLNWYLQKPGQSPQLLIYRVSNRFSGGLDRFSGSGSGTDFTLKISRVEAEDLGVYFCLQVTHVPFTFGSGTKLEIKR", "notes": "also called mouse Fab; mouse NGAD65 Fab"}},
  "key": {"chicken lysozyme [1]": {"molecular_target": "T1, chicken lysozyme (chicken, UniProt P00698 19-147)", "T1 construct": "also called chicken lysozyme antigen", "T1 sequence (P00698 19-147 limits assumed)": "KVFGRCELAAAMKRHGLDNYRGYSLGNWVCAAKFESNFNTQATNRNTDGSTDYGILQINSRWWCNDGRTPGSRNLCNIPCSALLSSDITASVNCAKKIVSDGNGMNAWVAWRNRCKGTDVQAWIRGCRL", "assay": "fluorescence quench titration (FIG. 7 legend); FIG. 7 legend, bound only"}, "chicken lysozyme [2]": {"molecular_target": "T1, chicken lysozyme", "assay": "fluorescence quench titration; reference is the literature Kd of D1.3 IgG (4 nM)"}, "chicken lysozyme [3]": {"molecular_target": "T1, chicken lysozyme", "assay": "intrinsic tryptophan fluorescence quench titration, 200 nM Fab titrated with lysozyme in solution"}, "CD28Ig [4]": {"molecular_target": "T2, CD28Ig (human, UniProt P10747 19-152)", "T2 construct": "also called GD28Ig; human CD28; not shown: Ig part of CD28Ig; not described", "assay": "ELISA on CD28Ig coated plates (FIG. 11 legend)"}, "CD28Ig [5]": {"molecular_target": "T2, CD28Ig", "assay": "ELISA, CD28Ig coated plates, detection with anti-human kappa immunoconjugate"}, "[6]": {"molecular_target": "T3, human glutamic acid decarboxylase 65 kilodalton isoform (human, UniProt Q05329 1-585)", "T3 construct": "also called GAD65; antigen", "T3 sequence (Q05329 whole entry, canonical isoform)": "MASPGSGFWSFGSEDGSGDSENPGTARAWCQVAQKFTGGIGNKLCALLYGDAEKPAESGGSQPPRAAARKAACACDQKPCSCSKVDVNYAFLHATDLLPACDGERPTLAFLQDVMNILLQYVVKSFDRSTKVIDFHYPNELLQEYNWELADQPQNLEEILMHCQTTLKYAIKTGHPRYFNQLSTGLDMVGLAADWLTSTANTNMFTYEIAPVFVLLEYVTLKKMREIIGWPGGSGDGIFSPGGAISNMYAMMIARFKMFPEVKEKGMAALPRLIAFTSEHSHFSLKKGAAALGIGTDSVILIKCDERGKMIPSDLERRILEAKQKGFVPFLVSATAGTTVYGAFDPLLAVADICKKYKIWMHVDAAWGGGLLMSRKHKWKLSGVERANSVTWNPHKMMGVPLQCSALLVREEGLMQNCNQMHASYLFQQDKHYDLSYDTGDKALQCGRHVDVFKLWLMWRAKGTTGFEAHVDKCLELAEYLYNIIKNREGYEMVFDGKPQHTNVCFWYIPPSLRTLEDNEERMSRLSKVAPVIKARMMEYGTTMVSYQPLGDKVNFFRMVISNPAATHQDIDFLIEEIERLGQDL", "assay": "immunoprecipitation of 35S-methionine labelled GAD65 with Fab and Protein G-Sepharose; midpoint read visually"}},
  "data": [
    {"binder": "B1", "values": [
      {"measurement": "Ka", "setting": "chicken lysozyme [1]", "result": "4.3e+07", "unit": "M⁻¹"},
      {"measurement": "factor by which affinity is diminished relative to the subject mouse antibody D1.3", "setting": "chicken lysozyme [2]", "result": "< 6", "unit": "fold"},
      {"measurement": "Kd", "setting": "chicken lysozyme [3]", "result": 23, "unit": "nM"}
    ]},
    {"binder": "B2", "values": [
      {"measurement": "Ka", "setting": "CD28Ig [4]", "result": "> 1e+06", "unit": "M⁻¹"},
      {"measurement": "EC50", "setting": "CD28Ig [5]", "result": 630, "unit": "nM"}
    ]},
    {"binder": "B3", "values": [
      {"measurement": "EC50", "setting": "CD28Ig [5]", "result": 30, "unit": "nM"}
    ]},
    {"binder": "B4", "values": [
      {"measurement": "EC50", "setting": "[6]", "result": 0.36, "unit": "pM"}
    ]}
  ]
}
